The source of these data is publication PMC3102090, “Interaction between Amyloid Beta Peptide and an Aggregation Blocker Peptide Mimicking Islet Amyloid Polypeptide” (PLoS ONE, 2011).

In one data set the test system is Aβ and α-synuclein. As to conditions: ref [41]; cited from earlier work. The text has this: In agreement with their intrinsic aggregation propensities, the agg ...
The target in data set [1] is IAPP-GI (Fluos-IAPP-GI) (Homo sapiens) (UniProt P10997). The data set can be described thus: fluorescence titration. To be noted: cited from earlier work.
Sequence of IAPP-GI (Fluos-IAPP-GI) (Homo sapiens) (P10997 32-73): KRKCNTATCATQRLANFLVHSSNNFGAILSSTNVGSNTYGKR
Data set [2] is described as follows: CLEANEX-PM-FHSQC water-amide proton exchange. It is filed as physicochemical. To be noted: 30 µM Aβ42, no IAPP-GI, pH 7.3, 278 K.
Protocol: In a CLEANEX-PM-FHSQC experiment, exposed parts of the backbone gain high signal intensity already at short mixing times due to efficient exchange with water, while for more protected groups the signal intensity only rises at longer mixing times.
To this end, CLEANEX-PM-FHSQC experiments were recorded on a Bruker Avance 600 MHz spectrometer equipped with a triple-resonance room temperature probe. […] The intensity of peaks as a function of mixing time was fitted to the following equation: [drawing 1] (1) where V0 is the intensity of the peak in a control FHSQC experiment, k is the normalized rate constant related to the forward exchange rate constant between water and NH protons, and R1A and R1B are apparent longitudinal relaxation rates for protein and water [32].
Data set [3] in a line: Side chain 1H-15N HSQC of histidines of Aβ42. It is filed as physicochemical. To be noted: 30 µM Aβ42, no IAPP-GI, pH 7.3, 278 K. As for the experimental part:
^1H-^15N HSQC spectra of the side chains of histidines (H6, H13 and H14) were acquired on a Bruker AMX 600 MHz spectrometer equipped with a triple-resonance cryogenic probe. […] A 30 µM sample of Aβ42 was also measured. The INEPT transfer delay was selected as 27.8 ms, to obtain the coherence transfer from the ε1H and δ2H protons to the ε2N and δ1N through the ^2J coupling constant (Figure 1B). The carrier and SWH values were 5.00 ppm and 6010 Hz in the direct dimension, and 185.31 ppm and 9728 Hz in the indirect dimension. The experimental matrix was 2K*256 complex data points, which after apodization through a 90°-shifted squared sine bell function in both dimensions was transformed to a final matrix of 8K*512 data points.

Another data set has as its target Aβ40 (Homo sapiens, UniProt P05067). As to conditions: Fluos-IAPP-GI (1 nM) titrated with low nano- to submicromolar Aβ40; fluorescence; ref [18]; read-out: app. Kd, IAPP-GI-Aβ40 interaction; cited from earlier work.
The test system of another data set is IAPP. To be noted: ref [38]; cited from earlier work.
The conditions of data set [4]: cited from earlier work. From the text:
Therefore, we needed to find an experimental condition under which these two peptides predominantly populate a monomeric state.

Square brackets hold non-standard residues; d marks the D form. Ends that are not written are not given here. fluorescein = fluorescein (N-terminal label); NMeI = CC[C@H](C)[C@H](NC)C(=O)O; Sar = CNCC(=O)O

Sequence of Aβ40 (P05067 672-711 limits assumed): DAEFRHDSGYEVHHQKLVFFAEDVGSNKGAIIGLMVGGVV
Sequence of Amyloid beta 40 1-40 (P05067 1-40): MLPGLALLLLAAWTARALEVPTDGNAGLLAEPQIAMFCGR

Consider `O=C(O[C@@H]1Cc2c(O)cc(O)cc2O[C@@H]1c1cc(O)c(O)c(O)c1)c1cc(O)c(O)c(O)c1` [(-)-epigallocatechin gallate], for which, in the data set on Aβ and α-synuclein, the “redirection of Aβ and α-synuclein into off-pathway oligomers” value is “redirection of Aβ and α-synuclein into off-pathway oligomers”.

Regarding “Amyloid beta 40 1-40 (from UniProt P05067)”, the Kd in data set [1] was 0.0412 µM.

Consider “Aβ42: amyloid-beta peptide; 15N-uniformly labeled Aβ1-42 purchased from rPeptide”, for which, in data set [2], the “water-amide proton exchange rates of Aβ42 compared with Aβ40” value was “the exchange rates are reduced in regions (Figure 9) that are also affected upon addition of IAPP-GI to Aβ40”. The “histidine side-chain peak pattern of pure Aβ42” value in data set [3] is reported as “very similar to that of Aβ40 with IAPP-GI”.

On to “Fluos-IAPP-GI: N-terminal fluorescein labeled IAPP-GI (fluorescein-KCNTATCATQRLANFLVHSSNNF[Sar]A[NMeI]LSSTNVGSNTY; ends and bridges not checked)”, for which the Kd with Aβ40 is 0.05 µM.

Consider “N-terminal part (residues 1–28): N-terminal part of Aβ (residues 1–28)”, for which the “affinity of N-terminal part of Aβ for IAPP” value in the data set on IAPP is reported as “low µM affinity”.

In the case of “human IAPP: Islet Amyloid Polypeptide, hydrophobic strongly amyloidogenic peptide produced in the pancreatic islet cells (KCNTATCATQRLANFLVHSSNNFGAILSSTNVGSNTY; not fully specified (C-terminus, bridges); cysteine pairing not given here; UniProt P10997 34-70, looked up)”, in data set [4] (neutral pH, 4°C, concentration as high as 255 µM (1 mg/mL), analytical ultracentrifugation and diffusion NMR, ref [24], [25]), the “assembly state of human IAPP” value was “kinetically stable state consisting of monomers and high molecular weight oligomers”. In addition, in data set [4] (temperatures above 20°C, ref [24]-[27]), the “self-association of human IAPP” value was “rapidly drives monomeric IAPP molecules toward oligo- and multimerization”.
